Measured values reported in the DeepSol protein solubility set.

Assay: soluble on expression in E. coli; label from the status in PepcDB or PDB records

Sequence	soluble on expression in E. coli
MGSDKIHHHHHHMATRATQISTLVEEIANNPNLKEDLKILPSNYTFEVPKTIWKIRSTESKYVALQFPEGLIMYACVIADILEKYTGCDTVIMGDVTYGACCVDDYTAKSMGCDLLVHYGHSCLVPIQNTDGIAMLYVFVNIHINLSHLIDCVKENFQGKRLVVVSTVQFIPSLQTLRTTFNKDDSSIRIDIPQCKPLSPGEVLGCTSPRLDASKYDAIVYLGDGRFHLESIMIHNPEIEAFQYDPYSRKLTREFYDHDLMRKNRIGSIEIARKCTTFGLIQGTLGRQGNLKVVEELEAQLERKGKKFLRVLLSEIFPEKLAMFPEVDCWVQVACPRLSIDWGTQFPKPLLYPFELAVALDNISVPSDHWPMDYYSNDSLGPWTNNNEANRPKREKRKPHIVVRTEAS	not soluble
MGSDKIHHHHHHMAVVFPSKEWMEELYKKVNADEEYRRVAANWEGDYLCVVELDEEALRDFQNPKVLRGFLGMLDSIPKEKRERFRGTPSEKLLEALGLSLDSDLSDANVEEIAKKIAENPDKILEAAKGASLNIWMDFWHGDFRNIEVAAPGEHEDAKFKLIGPYAVFKQLVMGKADAITLVVSGKLKLQGDMGYMMRNMATVKKFTDLMASIPIET	not soluble
MGSDKIHHHHHHMAYGGRITLNVRIALVGEELEIRENVNIEIEEGIITHIGNGFSSEGITFKNGILIPGIVNAHVHSADFICQEMGYNMPISKVVGDPHSVKYECFAKNTKESIMNSIERFVLRARELGSNVMIDFREQGLEGSLISSTIKKKMATNGVKYYFLGRLEEDEFKDIRNLNSLYKIADGYGLSSAFSTSEIELIKHVFNNKIRSVHVSETIKHWLRDDLEYVMKRYEPNLIIHGTYLSEEEIDIMRYRKASIVYCPRSNLWFSVGIPKVINGLKSGVNLLIGTDNGGVLDPDMWKEMETLLLISRVQDPLSDHSLQILKASTINAYKFLGIRGWIEEGNPIEAGLLVLEGDSTGILNSNNKYIGIIKRGNKIIYNLGAIQKII	not soluble
MGSDKIHHHHHHMAYIIPSDISAAALAGAHGPELETLAGLKTALSSDYTVYHGVHWSYDYRGQIRFGEADFVVVNQAGEMVVIEQKNGRLEDTAEGLIKVYGNTRKDVQSQVRRSVENIREKMRAASGSPPPSIDYLIYCPDHRLVRLNAVGLDVSRIVSGATPADLAGRIRQILPPGSKGGATENVHAFLRDAFQVVADVHAHVKAHERSYTRLIGGIADIVDSIEMAPLRLRLRGAPGSGKTVVAHRLYERALARGRRPLMVCFNHPLAERLAASVSPGGRVTTWHGLCVNFLAERGLKPNFEDAARNRSFWPDLAELIIAEPVPDAWRFDTLIVDEGQDFEPGWIDILHLFLTDAADIVWLEDPAQELRGIGRNELPGFVGLSVRTNYRTPQSIARFVKRALGADFVAANDLPGLGVGVSTYGLEDEQAVHLSRIVPALVRQGFAPDQIVIVTLKGATTSVLSQMTRIGTHEVSHFTGAYGDDGRQVRSRGLIRFESVQRFKGQQAPAVIVVDVNPASDPNKAERHLRQLFSAFTRATIRLEILAQKDNPMTARLLGSL	not soluble
MGSDKIHHHHHHMAYRKQLTRLKAPYLKRILLDPGRVEDWEKYPWNLPLFRGREFELEFTAPITIIVGENGTGKSTLLEAIGALAGYDEAGGGKGYMPVDHSRAIDKSGAALADNFRCHWLPKVTAGWFFRAESFYSVARYLDEAARESGATPPDFLSWSHGEGFIRFFEERCRRQGIYILDEPESALSPSRQIELLKMLRRMDQSGTAQVIMATHSPLLMACPGARLFRISRFGLEPADFRDTDHFRMLRDFSNDPDGFLAEALYEDEA	not soluble
MGSDKIHHHHHHMCPLMAENHEVIEEGNSSELPLSAEDAKKLTELAENVLQGWDVQAEKIDVIQGNQMALVWKVHTDSGAVCLKRIHRPEKKALFSIFAQDYLAKKGMNVPGILPNKKGSLYSKHGSFLFVVYDWIEGRPFELTVKQDLEFIMKGLADFHTASVGYQPPNGVPIFTKLGRWPNHYTKRCKQMETWKLMAEAEAAAPFSQLYLQEIDGFIEDGLRIKDRLLQSTYVPWTEQLKKSPNLCHQDYGTGNTLLGENEQIWVIDLDTVSFDLPIRDLRKMIIPLLDTTGVWDDETFNVMLNAYESRAPLTEEQKQVMFIDMLFPYELYDVIREKYVRKSALPKEELESAFEYERIKANALRQLI	not soluble
MGSDKIHHHHHHMDAILECCAGLDVHQETVVACILFGSLESKPKKTIRTFSTTTSDLLALTDWLEEEKCSHVAMESTGVYWKPVWNILEAGSFQLSLANAQRIKNLPGRKTDVKDAEWIAQLLRSGLIQGSFVPPAEIRDLRDLTRYRKKLLQDATQEKNRIHKILQDANIKITTYISDIFGVSGRNIMESLMDGEVITVEKLNQMVKGKVKSKIPGLADALNHRLRSHHRDMIRYSWSHLKFLEQSLINVEQKISECMAPYQQEVELLTSIPGINQTSSAIMIAELGADMSVFPTDSQLSSWAGVSPGNNESAGKKKEGVFPQETKR	not soluble
MGSDKIHHHHHHMDEKGLADCHTPTNGGNQKIKFVNEPNLYRIIFRSNKPEAKQFQDWVFNEVLPTIRKTGKYEAPKPVEKRNYLNNSDMNNIKRLIWTCADHFGHKGSFNQAIWACLRDVTGVPSPAKFEVEHLPVLAEEFKRILNIVQPFLDMQYECQTLLIKRVIRGRADHTVLQALLDNMRNAANQSDNQFKEALQKQLPAMFNQECLNLINRRPNHYDHYEYNERLI	not soluble
MGSDKIHHHHHHMDEMKVIEIIKKTLKFSNENIVKGIDDDCAIIKIDENFYLVATTDMMVKKAHIPSILSPYEIGGRILTANVSDIASMGAKPLAFLVSISLSKEEANEKFIKELYSGLDDFSKLYDCPVVGGDTNRGDELILSGTAFGITDNPIYRRGKVGDDICVTNDLGRVYCALTLYYMLKENKISYKEFERLCQKYPKIIEKLRKPIARIKEGLLMNKLINGCCDISDGLGKEITYFKNFEIYSDRIFKLIPEDVIEFCDAFNLNPIKVALNSGEEFELLFTTSKFNKVKDSLKGYSKIYKIGKIIEDGQFIDGEEFYGGGYIHKW	not soluble
MGSDKIHHHHHHMDFIEVYPNAIPDDLCDRLILAFEKHSGVVDGQTGNGVDLEKKISRDLTLDNFTDLQPLKNELLSYTLKGTADYFSQYAMALMGAVAVSVSDEQGQAVTLTPSNFERLGKPRAEALVKYLYRSGSINIQKYQKNKGGYPHWHSEQFPQLSHNEALHRVVLYMFYLNDVEEGGETEFYYQQRKISPKKGTMVIAPAGFTHSHRGNMPISNDKYIATSWVMFNRAEQLYAVYA	not soluble
MGSDKIHHHHHHMDFIEVYPNAIPDELCDRLISTLEQHPGVVDGRTGNGVDIEKKLSRDLTLDSFADLIPLRNELLSHALKGTVEYFDKYSMALMGAVAVKVADNQGQPVTLNPDNYAELGHPRADALVKYLYRSGTINVQKYPKGKGGYPHWHSEQFPQAGHNEALHRVVLYMFYLNDVEEGGETEFFYQGRKLKPQKGTMVIAPAGFTHTHRGNVPVSGDKYIATSWVMFNRAEQLYVVG	not soluble
MGSDKIHHHHHHMDFMTALDIGASALSAERTSMNITSMNLANAKTTRTIGGGPYRRKAVVMAATEVDDPFSKHMQSALDRELRGVRVQHIVRDNRPFRQVYEPGHPDADANGYVKYPDINVVEEMANLMTSQRGYQASVSTIEAVKSMYTKALEIGRS	not soluble
MGSDKIHHHHHHMDFRLRQMEIFRSVMLTGSINGAAKLLFISQPAVSRIIAHTEQTLGLKLFNRAKGKLIPTPEGVALFRQVDEFYEHALQVNNFARDLAQGATGTLNLSSSPCLSYTVMPRAIAQFIARYPKIRVVYHTSQLNCMATEVLSNKVDVAVAVMPIQHPNVKVEVFTTGKMACVLPKDHPLGSQTVLSLADVSAYPLIVHHPSITFGKLVSTAFRDAGLEMRSRVNVFQTDVACSLVRAGAGIAIVDEYTACAGAWHDLMQRPLAEPITLTPCIVRSAFDNQATHADKFIEILRGVAHAR	not soluble
MGSDKIHHHHHHMDHQYTTLERNRYFEVLGGLNVENRGDNKVAMLSELDMTSAQALRTSVDRQTGIKPSYTAIVAKAVSIALREHPYANRMAVERLFWKRILQLHDVHMTIAVERDRPGIEQAVFAGTIRDTDKLDVAAITKELQSLAQSTEETNERWRLLKRMVETLPPALARRLISIPRWLPDQWIKHRGGSVMISSPAKYGVDMMVANWPWPIGYSFGLVKDRVIAVEGAAQVRPTMVLTMSFDRRLMGGAPAARFFRTVCEHIEHAERDMALPVNIPS	not soluble
